# Measurements published in the supplement of paper PMC11246515.
# ± gives the standard deviation of the averaged measurements.
# Experiment: total protein half-life in vivo (active degradation + dilution); higher = more stable protein
# [1] = E. coli NCM3722 delta-clpP delta-lon delta-hslV, growth: N-lim chemostat, doubling time 6 h
# [2] = E. coli NCM3722 delta-clpP, growth: N-lim chemostat, doubling time 6 h
# [3] = E. coli NCM3722 delta-hslV, growth: N-lim chemostat, doubling time 6 h
# [4] = E. coli NCM3722 delta-lon, growth: N-lim chemostat, doubling time 6 h
# [5] = E. coli NCM3722 delta-smpB, growth: N-lim chemostat, doubling time 6 h
# [6] = wild type E. coli NCM3722, growth: C-lim chemostat, doubling time 3 h
# [7] = wild type E. coli NCM3722, growth: C-lim chemostat, doubling time 6 h
# [8] = wild type E. coli NCM3722, growth: C-lim chemostat, doubling time 12 h
# [9] = wild type E. coli NCM3722, growth: N-lim chemostat, doubling time 6 h
# [10] = wild type E. coli NCM3722, growth: N-lim chemostat, doubling time 12 h
# [11] = wild type E. coli NCM3722, growth: P-lim chemostat, doubling time 6 h
# [12] = wild type E. coli NCM3722, growth: P-lim chemostat, doubling time 12 h
Sequence,total protein half-life in vivo [1] [h],total protein half-life in vivo [2] [h],total protein half-life in vivo [3] [h],total protein half-life in vivo [4] [h],total protein half-life in vivo [5] [h],total protein half-life in vivo [6] [h],total protein half-life in vivo [7] [h],total protein half-life in vivo [8] [h],total protein half-life in vivo [9] [h],total protein half-life in vivo [10] [h],total protein half-life in vivo [11] [h],total protein half-life in vivo [12] [h]
MKFFALFIYRPVATILLSVAITLCGILGFRMLPVAPLPQVDFPVIIVSASLPGASPETMASSVATPLERSLGRIAGVSEMTSSSSLGSTRIILQFDFDRDINGAARDVQAAINAAQSLLPSGMPSRPTYRKANPSDAPIMILTLTSDTYSQGELYDFASTQLAPTISQIDGVGDVDVGGSSLPAVRVGLNPQALFNQGVSLDDVRTAVSNANVRKPQGALEDGTHRWQIQTNDELKTAAEYQPLIIHYNNGGAVRLGDVATVTDSVQDVRNAGMTNAKPAILLMIRKLPEANIIQTVDSIRAKLPELQETIPAAIDLQIAQDRSPTIRASLEEVEQTLIISVALVILVVFLFLRSGRATIIPAVSVPVSLIGTFAAMYLCGFSLNNLSLMALTIATGFVVDDAIVVLENIARHLEAGMKPLQAALQGTREVGFTVLSMSLSLVAVFLPLLLMGGLPGRLLREFAVTLSVAIGISLLVSLTLTPMMCGWMLKASKPREQKRLRGFGRMLVALQQGYGKSLKWVLNHTRLVGVVLLGTIALNIWLYISIPKTFFPEQDTGVLMGGIQADQSISFQAMRGKLQDFMKIIRDDPAVDNVTGFTGGSRVNSGMMFITLKPRDERSETAQQIIDRLRVKLAKEPGANLFLMAVQDIRVGGRQSNASYQYTLLSDDLAALREWEPKIRKKLATLPELADVNSDQQDNGAEMNLVYDRDTMARLGIDVQAANSLLNNAFGQRQISTIYQPMNQYKVVMEVDPRYTQDISALEKMFVINNEGKAIPLSYFAKWQPANAPLSVNHQGLSAASTISFNLPTGKSLSDASAAIDRAMTQLGVPSTVRGSFAGTAQVFQETMNSQVILIIAAIATVYIVLGILYESYVHPLTILSTLPSAGVGALLALELFNAPFSLIALIGIMLLIGIVKKNAIMMVDFALEAQRHGNLTPQEAIFQACLLRFRPIMMTTLAALFGALPLVLSGGDGSELRQPLGITIVGGLVMSQLLTLYTTPVVYLFFDRLRLRFSRKPKQTVTE,6.8 ± 0.5,6.49 ± 0.36,5.92 ± 0.38,7.42 ± 0.68,5.44 ± 0.14,3.64 ± 0.29,6.08 ± 1,14.4 ± 0.89,5.78 ± 0.89,13.8 ± 0.8,6.3 ± 0.2,12.2 ± 0.66
MSKRKVAIIGSGNIGTDLMIKILRHGQHLEMAVMVGIDPQSDGLARARRMGVATTHEGVIGLMNMPEFADIDIVFDATSAGAHVKNDAALREAKPDIRLIDLTPAAIGPYCVPVVNLEANVDQLNVNMVTCGGQATIPMVAAVSRVARVHYAEIIASIASKSAGPGTRANIDEFTETTSRAIEVVGGAAKGKAIIVLNPAEPPLMMRDTVYVLSDEASQDDIEASINEMAEAVQAYVPGYRLKQRVQFEVIPQDKPVNLPGVGQFSGLKTAVWLEVEGAAHYLPAYAGNLDIMTSSALATAEKMAQSLARKAGEAA,4.09 ± 1.4,5.24 ± 2.6,2.65 ± 0.48,2.43,2.21 ± 0.73,2.71 ± 0.36,4.45,6.77 ± 2.3,5.59,4.45,3.53,6.2 ± 0.2
MNNLPVVRSPWRIVILLLGFTFLYAPMLMLVIYSFNSSKLVTVWAGWSTRWYGELLRDDAMMSAVGLSLTIAACAATAAAILGTIAAVVLVRFGRFRGSNGFAFMITAPLVMPDVITGLSLLLLFVALAHAIGWPADRGMLTIWLAHVTFCTAYVAVVISSRLRELDRSIEEAAMDLGATPLKVFFVITLPMIMPAIISGWLLAFTLSLDDLVIASFVSGPGATTLPMLVFSSVRMGVNPEINALATLILGAVGIVGFIAWYLMARAEKQRIRDIQRARRG [P0AFL1],5.96,–,–,–,–,–,–,–,–,> 16,–,10.3
MDWLAKYWWILVIVFLVGVLLNVIKDLKRVDHKKFLANKPELPPHRDFNDKWDDDDDWPKKDQPKK [Q2EET2],4.44 ± 0.075,4.57 ± 1.7,–,5.94 ± 1.8,4.97 ± 0.94,3.28 ± 0.98,5.63 ± 0.88,6.37,5.06,9.68 ± 5.2,3.81,7.42 ± 0.16
